Molecular target: T1, Human NKp30 (BKM0179) (human, UniProt O14931)
T1 chain: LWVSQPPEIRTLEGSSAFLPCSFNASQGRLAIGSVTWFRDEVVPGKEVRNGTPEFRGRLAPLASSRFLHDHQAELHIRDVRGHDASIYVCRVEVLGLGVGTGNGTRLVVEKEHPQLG

Kd: 3.2 nM
B1: BKM0138 (BJM0411 VL-N95A) (antibody, V domains shown)
VH: EIQLLESGGGLVQPGGSLRLSCAVSGFSITTTGYHWNWVRQAPGKGLEWVGYIYSSGSTSYNPSLKSRFTISRDTSKNTFYLQMNSLRAEDTAVYYCARGDWHYFDYWGQGTMVTVSS
VL: DSVTTQSPLSLPVTLGQPASISCSGEKLSDKYVHWYQQRPGQSPRMLIYENDRRPSGVPDRFSGSNSGNDATLKVEAEDVGVYFCQFWDSTASAVFGGGTKVEIKI

Source: patent US20260327306 (published 2026)
